# Experimental data as given in patent US6638503.
# Columns and labels:
# Bovine serum albumin = Bovine serum albumin (UniProt P02769)
# [1] = test system: bovine serum albumin, haemoglobin, fibrinogen and thrombin
# Human fibrinogen = Human fibrinogen (UniProt P02671)
# Chain of Human fibrinogen (P02671 20-629, chain 1 of 3): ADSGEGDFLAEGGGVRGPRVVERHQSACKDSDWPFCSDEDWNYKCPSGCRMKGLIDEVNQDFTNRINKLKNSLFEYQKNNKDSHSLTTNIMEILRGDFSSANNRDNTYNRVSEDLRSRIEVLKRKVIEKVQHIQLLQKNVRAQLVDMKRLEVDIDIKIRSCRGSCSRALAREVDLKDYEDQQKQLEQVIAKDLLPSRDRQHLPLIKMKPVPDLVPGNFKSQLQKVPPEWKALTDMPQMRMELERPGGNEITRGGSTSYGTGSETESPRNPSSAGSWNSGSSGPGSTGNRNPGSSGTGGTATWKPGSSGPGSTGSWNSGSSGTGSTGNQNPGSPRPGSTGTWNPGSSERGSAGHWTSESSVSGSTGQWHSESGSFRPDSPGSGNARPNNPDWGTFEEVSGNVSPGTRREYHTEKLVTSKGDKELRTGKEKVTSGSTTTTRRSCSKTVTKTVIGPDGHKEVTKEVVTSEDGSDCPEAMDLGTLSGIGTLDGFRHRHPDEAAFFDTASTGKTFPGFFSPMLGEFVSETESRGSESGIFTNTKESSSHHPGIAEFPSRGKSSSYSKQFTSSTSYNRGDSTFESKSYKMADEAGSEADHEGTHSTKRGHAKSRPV
# Chain of Human fibrinogen (chain, as listed by the source, chain 2 of 3): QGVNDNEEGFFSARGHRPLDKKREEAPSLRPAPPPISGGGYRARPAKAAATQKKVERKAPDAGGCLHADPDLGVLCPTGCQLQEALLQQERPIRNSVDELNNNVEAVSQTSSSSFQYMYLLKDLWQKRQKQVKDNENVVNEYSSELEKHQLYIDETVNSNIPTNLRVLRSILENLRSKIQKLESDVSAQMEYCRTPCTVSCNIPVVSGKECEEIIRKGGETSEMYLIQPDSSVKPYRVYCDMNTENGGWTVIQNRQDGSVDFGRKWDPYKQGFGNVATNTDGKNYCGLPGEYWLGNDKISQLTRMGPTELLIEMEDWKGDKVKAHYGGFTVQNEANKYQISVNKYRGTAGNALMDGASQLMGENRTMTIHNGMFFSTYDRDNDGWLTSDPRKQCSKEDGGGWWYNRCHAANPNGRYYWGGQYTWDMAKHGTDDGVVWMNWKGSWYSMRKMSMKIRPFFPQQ
# Chain of Human fibrinogen (chain, as listed by the source, chain 3 of 3): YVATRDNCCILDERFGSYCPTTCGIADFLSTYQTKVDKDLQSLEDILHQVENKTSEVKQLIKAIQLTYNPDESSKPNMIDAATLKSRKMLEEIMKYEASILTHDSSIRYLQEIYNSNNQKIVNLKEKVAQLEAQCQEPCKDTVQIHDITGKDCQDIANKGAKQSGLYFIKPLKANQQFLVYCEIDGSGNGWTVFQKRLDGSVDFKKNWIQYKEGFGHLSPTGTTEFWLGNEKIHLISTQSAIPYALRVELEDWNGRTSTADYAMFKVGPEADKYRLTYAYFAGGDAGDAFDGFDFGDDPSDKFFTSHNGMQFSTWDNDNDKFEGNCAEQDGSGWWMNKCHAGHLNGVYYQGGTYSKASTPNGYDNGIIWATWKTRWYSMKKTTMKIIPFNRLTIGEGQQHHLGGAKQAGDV
# Chain of plasminogen (chain, as listed by the source): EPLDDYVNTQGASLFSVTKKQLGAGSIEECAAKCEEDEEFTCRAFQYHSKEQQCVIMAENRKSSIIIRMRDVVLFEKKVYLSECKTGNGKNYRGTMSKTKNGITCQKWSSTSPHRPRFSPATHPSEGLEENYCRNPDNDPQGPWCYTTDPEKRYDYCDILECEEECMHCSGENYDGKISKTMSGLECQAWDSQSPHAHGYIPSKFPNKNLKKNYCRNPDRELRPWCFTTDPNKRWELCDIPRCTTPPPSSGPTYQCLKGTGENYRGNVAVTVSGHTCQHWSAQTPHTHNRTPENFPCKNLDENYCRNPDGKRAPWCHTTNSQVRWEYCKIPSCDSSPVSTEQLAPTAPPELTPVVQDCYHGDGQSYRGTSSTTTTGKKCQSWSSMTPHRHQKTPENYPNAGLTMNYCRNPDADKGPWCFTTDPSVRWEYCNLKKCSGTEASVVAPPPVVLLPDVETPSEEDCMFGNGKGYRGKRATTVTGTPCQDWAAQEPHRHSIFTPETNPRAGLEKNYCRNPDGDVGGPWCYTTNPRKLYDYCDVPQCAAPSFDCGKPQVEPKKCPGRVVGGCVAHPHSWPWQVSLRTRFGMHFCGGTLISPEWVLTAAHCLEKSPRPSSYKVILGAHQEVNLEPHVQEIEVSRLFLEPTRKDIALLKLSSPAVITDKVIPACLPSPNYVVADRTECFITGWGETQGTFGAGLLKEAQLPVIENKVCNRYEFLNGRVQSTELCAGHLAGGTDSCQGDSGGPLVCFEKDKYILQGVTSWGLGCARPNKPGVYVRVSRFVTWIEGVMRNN
# Chain of Bovine serum albumin (P02769 25-607): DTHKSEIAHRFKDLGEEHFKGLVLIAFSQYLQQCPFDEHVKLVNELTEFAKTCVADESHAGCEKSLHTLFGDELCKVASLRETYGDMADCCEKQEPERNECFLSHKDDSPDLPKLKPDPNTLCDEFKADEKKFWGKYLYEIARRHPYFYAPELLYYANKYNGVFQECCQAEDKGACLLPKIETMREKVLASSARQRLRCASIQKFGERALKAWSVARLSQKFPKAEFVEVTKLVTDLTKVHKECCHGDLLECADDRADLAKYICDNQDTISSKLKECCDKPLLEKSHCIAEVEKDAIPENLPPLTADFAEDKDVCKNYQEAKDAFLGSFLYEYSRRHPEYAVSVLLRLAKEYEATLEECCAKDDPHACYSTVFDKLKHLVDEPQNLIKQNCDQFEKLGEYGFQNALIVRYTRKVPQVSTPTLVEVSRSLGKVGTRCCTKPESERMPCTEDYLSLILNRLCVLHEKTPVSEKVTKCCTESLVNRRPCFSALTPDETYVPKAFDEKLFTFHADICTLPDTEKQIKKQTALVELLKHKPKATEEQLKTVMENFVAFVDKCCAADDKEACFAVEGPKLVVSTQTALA
substance,measurement,setting,value
actinokinase (fibrinolytic enzyme from Streptomyces megasporus SD5),Relative activity (%),Bovine serum albumin,32%
same,amidolytic activity with and without added plasminogen,plasminogen,Amydolytic activity exhibited by the enzyme was same in presence and absence of plasminogen
same,"proteolytic activity, % of the control",[1],varied from 5-30% of the control
same,caseinolytic activity,casein,1.0×10^2 µmole/tyrosine mg^-1 protein min^-1
same,Relative activity (%),Hemoglobin,8%
same,Relative activity (%),Thrombin,27%
same,Relative activity (%),Human fibrinogen,12%
same,Relative activity (%),Fibrin,100%
same,fibrinolytic activity,Fibrin,1.0×10^3 µmole/ tyrosine mg^-1 protein min^-1
